Data taken from paper PMC11723922.
Read-outs that look alike come from different tables or passages of the source.

How the values were obtained:
Test in all cases: SPR; BIAcore X100; biotinylated Avi-tagged TβRI or TβRII captured on neutravidin-coupled CM-5 chip (max 150 RU); full-length TGM injected as twofold dilution series; HBS-EP, 25 mM HEPES, 150 mM NaCl, 0.005% P20, pH 7.4; 100 µL/min; 1:1 kinetic model
[1] = biological target: Biotinylated Avi-tagged human TβRI extracellular domain (human) (UniProt P36897)
[2] = biological target: Biotinylated Avi-tagged human TβRI extracellular domain (human) (UniProt P36897); remark: listed apart in the source
[3] = biological target: Biotinylated Avi-tagged human TβRII extracellular domain (human) (UniProt P37173)
Sequence of Biotinylated Avi-tagged human TβRII extracellular domain (human) (P37173 23-166): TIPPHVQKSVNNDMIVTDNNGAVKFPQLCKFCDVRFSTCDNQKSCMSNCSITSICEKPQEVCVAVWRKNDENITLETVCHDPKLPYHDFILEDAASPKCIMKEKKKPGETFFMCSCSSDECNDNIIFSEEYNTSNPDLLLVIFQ

Sequence of Biotinylated Avi-tagged human TβRI extracellular domain (human) (P36897 34-126): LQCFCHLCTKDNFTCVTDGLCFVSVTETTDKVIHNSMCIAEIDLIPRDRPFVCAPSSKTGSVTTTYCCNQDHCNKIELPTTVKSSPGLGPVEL

| Substance | Kd [1] | Kd [2] | Kd [3] |
| --- | --- | --- | --- |
| TGM1 full-length (D1-5), recombinant (natural protein) | 90 nM |  |  |
| TGM4 full-length (D1-5), recombinant (natural protein) | 5 nM | 3 to 5 nM | 116 µM |
